Results as given in PMC9482650, “Quantitative fragmentomics allow affinity mapping of interactomes” (Nature Communications, 2022).

Tests used:
Assay in all cases: holdup assay
Parameters in all cases: key: below the threshold = too weak to quantify, mostly under pKd 3.1 to 4
Settings in all cases: plain residues with an end cap or a label only (N-terminal biotin on a linker: ado-ado)
Inadl_8, Q8NI35 = biological target: Inadl_8, Q8NI35
FRMPD2_2, Q68DX3 = biological target: FRMPD2_2, Q68DX3
PDZD2_2, O15018 = biological target: T1, PDZD2_2, O15018
T1 sequence (O15018 329-429, limits assumed, looked up): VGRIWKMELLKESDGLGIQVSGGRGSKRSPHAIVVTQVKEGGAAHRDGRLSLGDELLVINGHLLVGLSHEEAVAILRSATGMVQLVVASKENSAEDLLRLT

FRMPD2_3, Q68DX3 = biological target: FRMPD2_3, Q68DX3
LAP2, Q96RT1 = biological target: LAP2, Q96RT1
LIN7A, O14910 = biological target: T2, LIN7A, O14910
T2 sequence (O14910 103-200, limits assumed, looked up): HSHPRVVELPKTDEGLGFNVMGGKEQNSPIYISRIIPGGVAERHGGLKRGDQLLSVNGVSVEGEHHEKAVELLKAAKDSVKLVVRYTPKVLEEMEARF

SNTB1, Q13884 = biological target: T3, SNTB1, Q13884
T3 sequence (Q13884 107-205, limits assumed, looked up): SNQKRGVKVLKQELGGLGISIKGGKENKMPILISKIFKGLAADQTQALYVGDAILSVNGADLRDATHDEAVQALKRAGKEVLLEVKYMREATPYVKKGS

GRID2IP_1, A4D2P6 = biological target: GRID2IP_1, A4D2P6
HTRA3, P83110 = biological target: T4, HTRA3, P83110
T4 sequence (P83110 354-453, limits assumed, looked up): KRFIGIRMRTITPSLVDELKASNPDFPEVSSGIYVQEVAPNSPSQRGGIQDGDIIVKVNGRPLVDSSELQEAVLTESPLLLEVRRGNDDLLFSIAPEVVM

GORASP1, Q9BQQ3 = biological target: GORASP1, Q9BQQ3
SCRIB_2, Q14160 = biological target: SCRIB_2, Q14160
FRMPD2_1, Q68DX3 = biological target: FRMPD2_1, Q68DX3
DLG3_2, Q92796 = biological target: T5, DLG3_2, Q92796
T5 sequence (Q92796 221-321, limits assumed, looked up): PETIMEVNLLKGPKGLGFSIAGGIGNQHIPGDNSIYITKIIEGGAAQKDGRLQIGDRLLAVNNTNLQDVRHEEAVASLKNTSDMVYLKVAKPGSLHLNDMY

GORASP2, Q9H8Y8 = biological target: GORASP2, Q9H8Y8
RHPN1, Q8TCX5 = biological target: T6, RHPN1, Q8TCX5
T6 sequence (Q8TCX5 508-602, limits assumed, looked up): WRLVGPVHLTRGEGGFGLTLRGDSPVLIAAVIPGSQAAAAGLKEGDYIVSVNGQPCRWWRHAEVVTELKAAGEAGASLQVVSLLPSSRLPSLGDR

Inadl_5, Q8NI35 = biological target: Inadl_5, Q8NI35
DLG4_1, P78352 = biological target: DLG4_1, P78352
CASK, O14936 = biological target: CASK, O14936
DLG3_1, Q92796 = biological target: T7, DLG3_1, Q92796
T7 sequence (Q92796 125-227, limits assumed, looked up): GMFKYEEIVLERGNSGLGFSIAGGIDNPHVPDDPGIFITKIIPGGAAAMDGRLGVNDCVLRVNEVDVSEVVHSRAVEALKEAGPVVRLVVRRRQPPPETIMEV

NHERF3_3, Q5T2W1 = biological target: T8, NHERF3_3, Q5T2W1
T8 sequence (Q5T2W1 238-333, limits assumed, looked up): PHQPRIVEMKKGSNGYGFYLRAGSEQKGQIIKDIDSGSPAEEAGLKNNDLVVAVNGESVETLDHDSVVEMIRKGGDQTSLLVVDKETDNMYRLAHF

GRIP1_7, Q9Y3R0 = biological target: T9, GRIP1_7, Q9Y3R0
T9 sequence (Q9Y3R0 999-1096, limits assumed, looked up): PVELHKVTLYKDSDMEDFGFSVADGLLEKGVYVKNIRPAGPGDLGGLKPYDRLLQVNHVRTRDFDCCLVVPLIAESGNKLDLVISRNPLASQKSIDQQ

MAGI3_2, Q5TCQ9 = biological target: MAGI3_2, Q5TCQ9
NHERF3_4, Q5T2W1 = biological target: T10, NHERF3_4, Q5T2W1
T10 sequence (Q5T2W1 373-468, limits assumed, looked up): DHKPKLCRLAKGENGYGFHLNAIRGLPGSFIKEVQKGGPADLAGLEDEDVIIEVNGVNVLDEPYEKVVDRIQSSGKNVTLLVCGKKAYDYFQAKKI

TJP1_2, Q07157 = biological target: TJP1_2, Q07157
MAGI1_1, Q96QZ7 = biological target: MAGI1_1, Q96QZ7
MPDZ_5, O75970 = biological target: T11, MPDZ_5, O75970
T11 sequence (O75970 695-796, limits assumed, looked up): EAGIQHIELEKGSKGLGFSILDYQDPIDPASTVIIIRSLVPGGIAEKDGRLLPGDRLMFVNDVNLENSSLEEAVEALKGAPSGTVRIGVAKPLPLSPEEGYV

MAGI2_6, Q86UL8 = biological target: MAGI2_6, Q86UL8
MAGI2_6, Q86UL8, sequence (Q86UL8 1141-1229): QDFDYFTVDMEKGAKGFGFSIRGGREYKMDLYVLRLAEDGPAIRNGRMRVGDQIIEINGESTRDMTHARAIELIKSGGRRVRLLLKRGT

FRMPD2_2, Q68DX3, sequence (Q68DX3 944-1038): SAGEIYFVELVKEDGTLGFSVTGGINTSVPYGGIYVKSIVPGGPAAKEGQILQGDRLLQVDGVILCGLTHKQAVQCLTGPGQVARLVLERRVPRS
CASK, O14936, sequence (O14936 487-570): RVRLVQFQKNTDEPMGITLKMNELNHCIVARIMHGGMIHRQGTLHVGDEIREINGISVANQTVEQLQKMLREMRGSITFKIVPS
MAGI3_2, Q5TCQ9, sequence (Q5TCQ9 398-503): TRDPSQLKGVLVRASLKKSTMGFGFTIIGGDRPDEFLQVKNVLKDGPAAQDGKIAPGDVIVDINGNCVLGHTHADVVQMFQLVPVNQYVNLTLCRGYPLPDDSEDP
LAP2, Q96RT1, sequence (Q96RT1 other isoform, or with tags, fused parts or gaps): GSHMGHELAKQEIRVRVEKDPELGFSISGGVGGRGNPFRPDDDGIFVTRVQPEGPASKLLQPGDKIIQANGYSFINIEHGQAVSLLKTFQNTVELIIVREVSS
TJP1_2, Q07157, sequence (Q07157 181-274): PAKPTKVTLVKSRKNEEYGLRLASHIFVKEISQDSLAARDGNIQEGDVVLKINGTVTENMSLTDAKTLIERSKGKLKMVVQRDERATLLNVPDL
Inadl_8, Q8NI35, sequence (Q8NI35 1425-1530): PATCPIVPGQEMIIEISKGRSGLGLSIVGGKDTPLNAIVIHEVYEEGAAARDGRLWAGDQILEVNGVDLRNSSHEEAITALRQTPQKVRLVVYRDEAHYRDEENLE
DLG4_1, P78352, sequence (P78352 62-152): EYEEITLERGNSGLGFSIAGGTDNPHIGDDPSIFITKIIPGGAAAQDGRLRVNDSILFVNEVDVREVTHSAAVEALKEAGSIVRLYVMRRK
Inadl_5, Q8NI35, sequence (Q8NI35 673-780): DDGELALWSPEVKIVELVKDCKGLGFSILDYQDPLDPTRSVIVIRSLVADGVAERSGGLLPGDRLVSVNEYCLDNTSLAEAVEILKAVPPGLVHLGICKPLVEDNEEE
FRMPD2_3, Q68DX3, sequence (Q68DX3 1073-1166): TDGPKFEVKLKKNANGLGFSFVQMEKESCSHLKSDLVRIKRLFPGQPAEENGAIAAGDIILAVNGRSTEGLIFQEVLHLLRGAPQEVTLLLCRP
GORASP1, Q9BQQ3, sequence (Q9BQQ3 1-208): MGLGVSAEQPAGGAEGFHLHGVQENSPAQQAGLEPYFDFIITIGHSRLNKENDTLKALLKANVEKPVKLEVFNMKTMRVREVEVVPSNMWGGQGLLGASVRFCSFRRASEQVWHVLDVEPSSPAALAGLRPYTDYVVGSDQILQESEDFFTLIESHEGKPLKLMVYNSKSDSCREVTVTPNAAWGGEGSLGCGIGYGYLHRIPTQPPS
FRMPD2_1, Q68DX3, sequence (Q68DX3 770-861): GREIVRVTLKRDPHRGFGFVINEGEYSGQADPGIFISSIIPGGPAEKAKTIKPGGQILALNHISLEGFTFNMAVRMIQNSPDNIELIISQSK
SCRIB_2, Q14160, sequence (Q14160 857-960): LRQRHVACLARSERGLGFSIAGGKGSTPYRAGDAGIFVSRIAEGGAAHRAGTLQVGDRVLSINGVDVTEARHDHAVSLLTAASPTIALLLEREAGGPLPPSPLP
MAGI1_1, Q96QZ7, sequence (Q96QZ7 1-106): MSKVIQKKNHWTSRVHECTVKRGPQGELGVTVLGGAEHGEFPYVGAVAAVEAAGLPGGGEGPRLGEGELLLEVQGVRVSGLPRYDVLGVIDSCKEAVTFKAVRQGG
GRID2IP_1, A4D2P6, sequence (A4D2P6 1-87): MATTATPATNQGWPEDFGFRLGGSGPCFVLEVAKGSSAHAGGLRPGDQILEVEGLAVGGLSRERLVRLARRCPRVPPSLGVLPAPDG

| Binder | pKd (Inadl_8, Q8NI35) | pKd (FRMPD2_2, Q68DX3) | pKd (PDZD2_2, O15018) | pKd (FRMPD2_3, Q68DX3) | pKd (LAP2, Q96RT1) | pKd (LIN7A, O14910) | pKd (SNTB1, Q13884) | pKd (GRID2IP_1, A4D2P6) | pKd (HTRA3, P83110) | pKd (GORASP1, Q9BQQ3) | pKd (SCRIB_2, Q14160) | pKd (FRMPD2_1, Q68DX3) | pKd (DLG3_2, Q92796) | pKd (GORASP2, Q9H8Y8) | pKd (RHPN1, Q8TCX5) | pKd (Inadl_5, Q8NI35) | pKd (DLG4_1, P78352) | pKd (CASK, O14936) | pKd (DLG3_1, Q92796) | pKd (NHERF3_3, Q5T2W1) | further results |
| --- | --- | --- | --- | --- | --- | --- | --- | --- | --- | --- | --- | --- | --- | --- | --- | --- | --- | --- | --- | --- | --- |
| LESTTVGTSV [KARS1, Q15046] | 4.15 | 3.79 | 4.87 | below the threshold | 3.92 | below the threshold | 3.85 | below the threshold | below the threshold | below the threshold | 4.46 | below the threshold | 4.51 | below the threshold | 4.07 | below the threshold | 4.13 | below the threshold | 3.98 | below the threshold | pKd (GRIP1_7, Q9Y3R0): below the threshold; pKd (MAGI3_2, Q5TCQ9): 4.09; pKd (NHERF3_4, Q5T2W1): below the threshold; pKd (TJP1_2, Q07157): below the threshold; pKd (MAGI1_1, Q96QZ7): 3.5; pKd (MPDZ_5, O75970): below the threshold; pKd (MAGI2_6, Q86UL8): 4.32 |
| VKRNSKETVV [MARCHF3, Q86UD3] | below the threshold | 3.81 | 4.17 | below the threshold | 3.54 | below the threshold | 5.19 | below the threshold | below the threshold | 4.09 | 3.89 | 3.8 | 5.52 | 4.6 | 4.07 | 3.67 | 5.48 | below the threshold | 4.77 | below the threshold | pKd (GRIP1_7, Q9Y3R0): below the threshold; pKd (MAGI3_2, Q5TCQ9): 5.72; pKd (NHERF3_4, Q5T2W1): below the threshold; pKd (TJP1_2, Q07157): below the threshold; pKd (MAGI1_1, Q96QZ7): below the threshold; pKd (MPDZ_5, O75970): below the threshold; pKd (MAGI2_6, Q86UL8): below the threshold |
| NIAESLESLV [PTPRZ1, P23471] | below the threshold | 4.66 | 5.37 | below the threshold | 4.25 | 4.04 | 4.68 | below the threshold | below the threshold | below the threshold | 3.66 | below the threshold | 4.81 | below the threshold | 4.6 | below the threshold | 4.65 | below the threshold | 4.29 | below the threshold | pKd (GRIP1_7, Q9Y3R0): below the threshold; pKd (MAGI3_2, Q5TCQ9): 4.92; pKd (NHERF3_4, Q5T2W1): below the threshold; pKd (TJP1_2, Q07157): below the threshold; pKd (MAGI1_1, Q96QZ7): below the threshold; pKd (MPDZ_5, O75970): below the threshold; pKd (MAGI2_6, Q86UL8): 3.96 |
| ILRKSTTTTV [PRR16, Q569H4] | 3.62 | below the threshold | 4.18 | below the threshold | below the threshold | below the threshold | 3.85 | below the threshold | below the threshold | 4.19 | below the threshold | below the threshold | 5.07 | 4.73 | 4.01 | below the threshold | 4.78 | below the threshold | 4.26 | below the threshold | pKd (GRIP1_7, Q9Y3R0): below the threshold; pKd (MAGI3_2, Q5TCQ9): 5.15; pKd (NHERF3_4, Q5T2W1): below the threshold; pKd (TJP1_2, Q07157): below the threshold; pKd (MAGI1_1, Q96QZ7): below the threshold; pKd (MPDZ_5, O75970): below the threshold; pKd (MAGI2_6, Q86UL8): below the threshold |
